Results as given in publication doi:10.1101/2022.05.13.491839 (bioRxiv, 2022).

Tests used:
Experiment in all cases: liposome flotation assay
VAP-A^His sL1/2 = molecular target: T1, VAP-A^His sL1/2 (human, UniProt Q9P0L0 8-132; Q9P0L0 165-206)
T1 chain: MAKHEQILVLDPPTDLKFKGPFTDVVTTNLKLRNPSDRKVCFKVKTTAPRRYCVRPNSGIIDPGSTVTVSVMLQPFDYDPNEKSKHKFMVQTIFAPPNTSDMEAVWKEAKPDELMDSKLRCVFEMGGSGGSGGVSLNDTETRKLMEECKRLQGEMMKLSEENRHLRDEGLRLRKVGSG

VAP-A^His sL2 = molecular target: T2, VAP-A^His sL2 (human, UniProt Q9P0L0 8-206)
T2 chain: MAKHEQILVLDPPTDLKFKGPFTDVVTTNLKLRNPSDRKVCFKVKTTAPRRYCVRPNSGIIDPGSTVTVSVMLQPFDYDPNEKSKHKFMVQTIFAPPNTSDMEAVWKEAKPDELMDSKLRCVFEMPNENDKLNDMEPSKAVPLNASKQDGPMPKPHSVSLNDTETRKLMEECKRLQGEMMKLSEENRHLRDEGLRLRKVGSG

VAP-A^His sL1 = molecular target: T3, VAP-A^His sL1 (human, UniProt Q9P0L0 8-132; Q9P0L0 165-230)
T3 chain: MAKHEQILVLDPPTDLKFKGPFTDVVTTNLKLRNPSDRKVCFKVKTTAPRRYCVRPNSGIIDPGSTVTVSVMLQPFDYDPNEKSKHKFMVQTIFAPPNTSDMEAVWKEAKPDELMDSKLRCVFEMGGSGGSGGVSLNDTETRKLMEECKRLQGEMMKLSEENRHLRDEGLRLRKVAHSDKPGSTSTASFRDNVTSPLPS

VAP-A^His WT = molecular target: T4, VAP-A^His WT (human, UniProt Q9P0L0 8-230)
T4 sequence (looked up): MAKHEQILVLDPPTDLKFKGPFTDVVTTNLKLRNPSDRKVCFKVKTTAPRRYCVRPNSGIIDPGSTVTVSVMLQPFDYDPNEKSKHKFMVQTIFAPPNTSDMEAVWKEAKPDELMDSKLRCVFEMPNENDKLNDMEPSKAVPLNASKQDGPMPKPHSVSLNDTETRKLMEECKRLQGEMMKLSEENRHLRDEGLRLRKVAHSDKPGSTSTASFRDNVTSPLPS

Measured: binding result

B1: FFAT peptide (peptide)
peptide: WCSGKGDMSDEDDENEFFDAPEIITMPENLGH
binds: all assays above
